T1: human soluble FLT3L (recombinant huFLT3L) (human, UniProt P49771 27-184)
T1 sequence (looked up): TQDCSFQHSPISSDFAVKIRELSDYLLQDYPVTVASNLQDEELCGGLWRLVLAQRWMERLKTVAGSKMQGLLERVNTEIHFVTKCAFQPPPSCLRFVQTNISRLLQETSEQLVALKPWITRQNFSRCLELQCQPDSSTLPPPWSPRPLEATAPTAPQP

T2: mouse soluble FLT3L (mouse, UniProt P49772 27-189)
T2 sequence (looked up): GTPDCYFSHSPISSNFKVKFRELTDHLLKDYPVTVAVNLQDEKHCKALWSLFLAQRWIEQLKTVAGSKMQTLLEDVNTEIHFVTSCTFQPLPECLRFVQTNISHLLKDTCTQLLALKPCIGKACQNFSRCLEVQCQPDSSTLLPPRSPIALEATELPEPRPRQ

T3: human FLT3L on the cell surface (human, UniProt P49771 27-235)
T3 construct: whole, on cells; The assay field of each row says which cells carried it; also called cell-surface FLT3L; huFLT3L-expressing CHO cells
T3 sequence (looked up): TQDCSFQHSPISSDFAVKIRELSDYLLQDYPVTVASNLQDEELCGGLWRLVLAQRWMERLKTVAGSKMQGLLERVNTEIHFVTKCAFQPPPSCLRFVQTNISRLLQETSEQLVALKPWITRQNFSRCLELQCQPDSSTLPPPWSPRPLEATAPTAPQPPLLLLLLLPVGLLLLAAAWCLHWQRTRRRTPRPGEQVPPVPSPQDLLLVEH

T4: mouse FLT3L on CHO cells (mouse, UniProt P49772 27-232)
T4 construct: whole, on cells; also called cell surface mouse FLT3L
T4 sequence (looked up): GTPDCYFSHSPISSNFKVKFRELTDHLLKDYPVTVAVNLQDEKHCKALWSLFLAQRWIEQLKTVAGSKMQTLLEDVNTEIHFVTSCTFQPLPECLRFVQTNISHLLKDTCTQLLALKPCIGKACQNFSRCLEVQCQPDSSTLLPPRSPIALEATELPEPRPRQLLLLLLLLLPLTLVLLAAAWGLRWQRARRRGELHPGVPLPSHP

T5: recombinant human colony stimulating factor 1 (CSF1) (human, UniProt P09603 33-190, limits assumed)
T5 construct: also called huCSF1; huCSF
T5 sequence (looked up): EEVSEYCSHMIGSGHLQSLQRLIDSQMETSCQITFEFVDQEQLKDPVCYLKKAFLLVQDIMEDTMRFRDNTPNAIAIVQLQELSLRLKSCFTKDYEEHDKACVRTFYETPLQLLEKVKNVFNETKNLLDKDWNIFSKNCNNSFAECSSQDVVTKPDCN


Columns and labels:
[1] = target: T1, human soluble FLT3L (recombinant …); test: cell-based or functional assay
[2] = target: cynomolgus monkey soluble FLT3L (cynomolgus monkey); test: cell-based or functional assay
[3] = target: T2, mouse soluble FLT3L; test: cell-based or functional assay
[4] = target: T1, human soluble FLT3L (recombinant …); test: cell-based or functional assay; remark: listed apart in the source
[5] = target: T6, cynomolgus monkey FLT3L on CHO cells (cynomolgus monkey); test: flow cytometry on CHO cells expressing full-length cyno FLT3L, PE anti-hu IgG
T6 construct: whole, on cells; also called cell surface cyno FLT3L
Protocol: (§1) Consistent with this, cell surface binding to human, cyno, and mouse FLT3L was evaluated by transfecting Chinese hamster ovary (CHO) cells with the respective full-length protein for each species. Candidate clones were incubated with FLT3L-expressing cell lines for 1 hour at 4° C. before being washed twice to remove unbound antibody. Cells were then incubated with PE-labeled goat anti-hu IgG secondary detection pAb to quantitate bound antibody which was measured by flow cytometric analysis of PE signal. The huFLT3-Fc construct, on a hu IgG backbone, was used as a positive control reagent for FLT3L expression as it cross reacts with cyno and mouse, in addition to human ligand.
(§2) As differences were apparent in the degree of receptor occupancy for each clone, both EC50 and max occupancy were noted (expressed as percent relative to FLT3-Fc) and taken into account in the final evaluation. Results are shown in Table 4 for human, cyno, and mouse FLT3L expressed in CHO cells.

[6] = target: T3, human FLT3L on the cell surface; test: flow cytometry on CHO cells expressing full-length human FLT3L, PE anti-hu IgG
Protocol: as §1, §2

[7] = target: T4, mouse FLT3L on CHO cells; test: flow cytometry on CHO cells expressing full-length mouse FLT3L, PE anti-hu IgG
Protocol: as §1, §2

[8] = target: T1, human soluble FLT3L (recombinant …); test: Biacore, Fab
[9] = target: T1, human soluble FLT3L (recombinant …); test: Biacore, Fab, kinetic (koff/kon)
[10] = target: T7, recombinant human stem cell factor (SCF) (human, UniProt P21583 26-189); test: ELISA on coated recombinant human SCF
T7 construct: also called huSCF; KIT-ligand
Protocol: (§3) To test this, an ELISA plate was coated with 2 µg of recombinant human SCF or CSF1. After washing, the plate was blocked with 3% milk in Tris-Phosphate Buffered Saline (TPBS) and lead antibodies were added in serial (×2) dilution, starting at 50 µg/ml. After incubation, unbound antibody was removed by washing and bound antibody was detected using anti-human IgG-HRP in combination with TMB substrate for color development. Commercially available goat anti-SCF pAb and mouse anti-CSF1 mAb were used as positive binding controls.

[11] = target: T5, recombinant human colony stimulating …; test: ELISA on coated recombinant human CSF1
Protocol: as §3

[12] = target: T4, mouse FLT3L on CHO cells; test: flow cytometry on CHO cells expressing mouse FLT3L, anti-hu IgG-PE detection
Protocol: as §1

[13] = target: T1, human soluble FLT3L (recombinant …); test: Biacore
[14] = target: T8, cynomolgus monkey soluble FLT3L (cynomolgus monkey); test: Biacore
T8 construct: extracellular domain; also called cyno sFLT3L; cyno FLT3L

T7 sequence (P21583 26-189 limits assumed): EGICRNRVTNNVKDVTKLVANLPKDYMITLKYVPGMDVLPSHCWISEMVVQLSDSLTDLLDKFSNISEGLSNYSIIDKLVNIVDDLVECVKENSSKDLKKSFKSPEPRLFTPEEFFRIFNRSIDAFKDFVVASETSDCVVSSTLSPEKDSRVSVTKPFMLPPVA

Row | Binder | IC50 (nM), inhibition of FLT3 downregulation on RS4;11 cells [1] [nM] | IC50 (nM), inhibition of FLT3 downregulation on RS4;11 cells [2] [nM] | EC50 [5] [nM] | maximum occupancy (% relative to FLT3-Fc) [5] [%] | EC50 [6] [nM] | maximum occupancy (% relative to FLT3-Fc) [6] [%] | koff [8] [s⁻¹] | kon [8] [M⁻¹ s⁻¹] | Kd [9] [nM] | also measured
1 | Dyax3 antibody (IgG1 TM format) (antibody, V domains shown, also called DTAX3) VH: EVQLLESGGGLVQPGGSLRLSCAASGFTFSMYEMRWVRQAPGKGLEWVSVIPSGGKTFYADSVKGRFTISRDNSKNTLYLQMNSLRAEDTAVYYCARYSRWFGQLGFYSHYAMDVWSQGTTVTVSS VL: DIQMTQSPSSLSASVGDRVAITCRASQSIDTYLNWYQQKPGKAPKLLIYAASKLEDGVPSRFSGSGTGTDFTLTIRSLQPEDFASYFCQQSYSSPGITFGPGTKVEIK | 54.8 | 3070 | 1.8 | 35 | 0.27 | 33 |  |  |  | IC50 (nM), inhibition of FLT3 downregulation on RS4;11 cells [3]: 1490 nM; IC50 (nM) against 0.476 nM FLT3L, ERK phosphorylation in CD133+ stem cells [4]: 2.4 nM; IC50 (nM) against 0.476 nM FLT3L, MEK phosphorylation in CD133+ stem cells [4]: 93 nM; EC50 [7]: 0.39 nM; maximum occupancy (% relative to FLT3-Fc) [7]: 16%
2 | Dyax3 Fab (Fab, V domains shown) VH: EVQLLESGGGLVQPGGSLRLSCAASGFTFSMYEMRWVRQAPGKGLEWVSVIPSGGKTFYADSVKGRFTISRDNSKNTLYLQMNSLRAEDTAVYYCARYSRWFGQLGFYSHYAMDVWSQGTTVTVSS VL: DIQMTQSPSSLSASVGDRVAITCRASQSIDTYLNWYQQKPGKAPKLLIYAASKLEDGVPSRFSGSGTGTDFTLTIRSLQPEDFASYFCQQSYSSPGITFGPGTKVEIK |  |  |  |  |  |  | 0.00123 | 66000 | 18.7 | 
3 | CAT8 antibody (IgG1 TM format) (antibody, V domains shown, Human antibody from phage display) VH: not shown VL: QSVLTQPPSASGTPGQRVAISCSGSSSNIGSGYVYWYQQVPGTAPTLLIHRNNQRPSGVPDRFSGSKSGTSASLAISGLRSEDEADYYCAAWDDSLSGYVFGTGTKVTV | 43.5 | 3000 | 9 | 32 | 0.08 | 60 |  |  |  | binding result [10]: no binding (tested: about 0.3 uM); binding result [11]: no binding (tested: about 0.3 uM); binding result [12]: no binding (tested: x = -7.2 (x axis without title or unit))
4 | CAT8 Fab (Fab, V domains shown) VH: not shown VL: QSVLTQPPSASGTPGQRVAISCSGSSSNIGSGYVYWYQQVPGTAPTLLIHRNNQRPSGVPDRFSGSKSGTSASLAISGLRSEDEADYYCAAWDDSLSGYVFGTGTKVTV |  |  |  |  |  |  | 0.00556 | 628000 | 8.85 | 
5 | AM40 (MEDI1116) antibody (antibody, V domains shown) VH: QVQLVQSGAEVKKPGSSVKVSCKASGGTFSSYALSWVRQAPGQGLEWMGTRPPTSRTASYAQKFQGRVTITVDESTSTGYMELSSLRSEDTAVYYCASNDFVYGSYRFWGQGTTVTVSS VL: NFMLTQPHSVSESPGKTVTISCTRTSGNIAGYFVQWYQQRPGSSPTTVIYEDYQRPSGVPDRFSGSIDSSSNSASLTISGLKTEDEADYYCQSYDDYRRAAFGGGTKLTVLG |  |  |  |  |  |  |  |  |  | Kd [13]: 0.17 nM; koff [13]: 0.00018 s⁻¹; kon [13]: 1.09e+06 M⁻¹ s⁻¹; Kd [14]: 0.063 nM; koff [14]: 0.00017 s⁻¹; kon [14]: 2.66e+06 M⁻¹ s⁻¹
6 | SC4017 antibody (antibody, V domains shown) VH: QVQLVQSGAEVKKPGSSVKVSCKASGGTFSSYALSWVRQAPGQGLEWMGTRPPTSRTASYAQKFQGRVTITVDESTSTGYMELSSLRSEDTAVYYCASNDFVYGSYRFWGQGTTVTVSS VL: NFMLTQPHSVSESPGKTVTISCTRTSGWIAGYFVQWYQQRPGSSPTTVIYEDYQRPSGVPDRFSGSIDSSSNSASLTISGLKTEDEADYYCQSYDDYRRAAFGGGTKLTVLG |  |  |  |  |  |  |  |  |  | Kd [13]: 0.037 nM; koff [13]: 5e-05 s⁻¹; kon [13]: 1.45e+06 M⁻¹ s⁻¹; Kd [14]: 0.0088 nM; koff [14]: 5e-05 s⁻¹; kon [14]: 5.84e+06 M⁻¹ s⁻¹
7 | CAT26 antibody (IgG1 TM format) (antibody, V domains shown) VH: EVQLLESGGGLVQPGGSLRLSCAASGFTFSSYAVSWVRQAPGKGLEWVSAISGSGGSTYYADSVKGRFTISRDNSKNTLYLQMNSLRAEDTAVYYCVKDAYGSSWYFYYFDYWGQGTMVTVSS VL: QSVLTQPPSASGTPGQRVTISCSGSSSNIGINPVNWYQQLPGTAPKVLIYSDKYRPSGVADRFSGSKSGTSASLAISGLQSEDEADYFCAAWDDSLNGRVFGTGTKLTVL | 618 | 2580 | 1.1 | 96 | 0.19 | 46 |  |  |  | binding result [10]: no binding (tested: about 0.3 uM); binding result [11]: no binding (tested: about 0.3 uM); binding result [12]: no binding (tested: x = -7.2 (x axis without title or unit))
8 | CAT26 Fab (Fab, V domains shown) VH: EVQLLESGGGLVQPGGSLRLSCAASGFTFSSYAVSWVRQAPGKGLEWVSAISGSGGSTYYADSVKGRFTISRDNSKNTLYLQMNSLRAEDTAVYYCVKDAYGSSWYFYYFDYWGQGTMVTVSS VL: QSVLTQPPSASGTPGQRVTISCSGSSSNIGINPVNWYQQLPGTAPKVLIYSDKYRPSGVADRFSGSKSGTSASLAISGLQSEDEADYFCAAWDDSLNGRVFGTGTKLTVL |  |  |  |  |  |  | 0.00084 | 191000 | 4.37 | 
9 | Dyax5 antibody (IgG1 TM format) (antibody, V domains shown) VH: EVQLLESGGGLVQPGGSLRLSCAASGFTFSSYIMVWVRQAPGKGLEWVSSIYSSGGSTSYADSVKGRFTISRDNSKNTLYLQMNSLRAEDTAVYYCTRYSRWFGQLGFYSHYAMDVWSQGTTVTVSS VL: not shown | 245 | 6020 |  |  | 0.66 | 28 |  |  |  | IC50 (nM), inhibition of FLT3 downregulation on RS4;11 cells [3]: 354 nM; IC50 (nM) against 0.476 nM FLT3L, ERK phosphorylation in CD133+ stem cells [4]: 25 nM; EC50 [7]: 0.11 nM; maximum occupancy (% relative to FLT3-Fc) [7]: 51%
10 | Dyax5 Fab (Fab, V domains shown) VH: EVQLLESGGGLVQPGGSLRLSCAASGFTFSSYIMVWVRQAPGKGLEWVSSIYSSGGSTSYADSVKGRFTISRDNSKNTLYLQMNSLRAEDTAVYYCTRYSRWFGQLGFYSHYAMDVWSQGTTVTVSS VL: not shown |  |  |  |  |  |  | 0.00501 | 228000 | 22 | 

Source: patent US20230056815A1 (VIELA BIO, published 2023)
